Measurements published in patent US5985836A, “Alpha-1 proteinase inhibitor binding peptides” (Bayer Corporation, priority 1998, dated 1999).
One block for each substance: values may come before it. Ends that are not written are not given here.

Experiments:
Immunoglobulin G (IgG) = test: Purification from Effluent II+III, IgG mass balance; type: binding, human; conditions: 1 ml Eff. II+III, 4° C.
Description: (§1) Sequences 1-11 and 15 were assayed with Effluent II+III (Eff. II+III). Eff. II+III is a process intermediate in the Cohn plasma fractionation process. The feed stream contains 20% (by volume) ethanol, 20-25 mg/ml hSA and approximately 1 mg/ml AlPI. The stream also contains other proteins including anti-thrombin III (AT3), immunoglobin G (IgG), immunoglobin A (IgA), apolipoprotein alpha-1 (Apo A-1), transferrin (Trf), haptoglobin (Hpt), and alpha-1 acid glycoprotein (AAG) at concentrations ranging from 0.1-1 mg/ml.
(§2) The columns were assayed using the same technique as the hSA+AlPI experiments, allowing for a 10 minute residence time followed by a constant flow rate of 865 μl/min with step elutions of 1M NaCl, 3M NaCl, and 2% acetic acid. All experiments were conducted at 4° C. The mass balances for the injection of 1 ml Eff. […] The AlPI was enriched from 3% of the total protein in the feed to upwards of 50% in the acid eluate.

A1PI [1] = molecular target: T1, A1PI (Homo sapiens, UniProt P01009); test: A1PI purification from 5 mg hSA + 1 mg A1PI on peptide column, A1PI mass balance; type: binding; conditions: A1PI, 5 mg hSA + 1 mg A1PI
T1 construct: Human plasma is currently the only approved source of therapeutic AlPI
T1 sequence (P01009 25-418): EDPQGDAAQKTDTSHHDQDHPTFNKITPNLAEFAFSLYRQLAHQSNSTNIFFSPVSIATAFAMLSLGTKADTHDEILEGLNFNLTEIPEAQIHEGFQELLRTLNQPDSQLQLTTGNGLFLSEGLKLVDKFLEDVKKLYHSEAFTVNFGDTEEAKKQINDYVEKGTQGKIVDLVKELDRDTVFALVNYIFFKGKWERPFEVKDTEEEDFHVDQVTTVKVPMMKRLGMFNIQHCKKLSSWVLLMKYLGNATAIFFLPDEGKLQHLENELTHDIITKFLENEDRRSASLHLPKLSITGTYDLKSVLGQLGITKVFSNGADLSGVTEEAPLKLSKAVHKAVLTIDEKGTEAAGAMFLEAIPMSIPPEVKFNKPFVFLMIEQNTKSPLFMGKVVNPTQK
Description: Confirmatory binding assays were performed in a column chromatographic format on a microbore HPLC using individual peptide sequences synthesized directly onto the Toyopearl 650 M Chelate resin which had been modified with Totda followed by an alanine residue (A-Totda-Toyopearl), at a final substitution density of 0.1 mmole/g resin. The resin was packed into 0.4×5 cm columns (Thomson, Springfield, Va.) and tested on the Michrom HPLC system (Michrom BioResources, Auburn, Calif.). The elution program for all trials utilized the following method. The column was pre-equilibrated with equilibration buffer (as above). 1 ml of sample was injected and allowed sufficient time to flowthrough the column using equilibration buffer. The column was then washed with step elutions of 1M NaCl and 3M NaCl in equilibration buffer. The column was exposed to equilibration buffer with 0.1M NaCl. Any remaining protein was eluted with elution buffer (2% by volume glacial acetic acid in water).
A Gilson FC204 fraction collector at the HPLC outlet collected individual eluates for further analysis. Fractions collected from the 2% acetic acid eluates were neutralized with 2M Tris, pH 10.5 to bring the pH to neutrality. The protein samples were reconstituted in equilibration buffer unless otherwise stated. The samples were analyzed by the integration of the absorbance at 280 nm or by immunonephelometry. The specific method of determination is presented for each figure.
Columns were assayed with a mixture of 5 mg human serum albumin (hSA)+1 mg AlPI at 4° C. (Table 4, Seq. ID 1-11, 15, 17) and 20° C. (Table 5, Seq. ID 1-10, 13, 15, 17). The chromatography method was modified to provide for a 10 minute residence time of sample in the column by decreasing the flow to 17 μl/min (10 cm/hr) upon injection. Following the incubation, the flow was set at 865 μl/min (413 cm/hr) for the step elutions of 1M NaCl, 3M NaCl, and 2% acetic acid. The mass balances presented are based upon immunonephelometry. The Percent Eluted value is protein-specific and based on the amount of the protein eluted in a […]

A1PI [2] = molecular target: T1, A1PI; test: Purification of A1PI from Effluent II+III on peptide column, A1PI mass balance; type: binding; conditions: 1 ml Eff. II+III, 4° C.
Description: as §1, §2

Immunoglobulin A (IgA) = test: Purification from Effluent II+III, IgA mass balance; type: binding, human; conditions: 1 ml Eff. II+III, 4° C.
Description: as §1, §2

A1PI [3] = molecular target: T1, A1PI; test: A1PI binding on peptide-resin column, injection of 1 mg A1PI in equilibration buffer; conditions: for % of Total A1PI Eluted by Fraction (Based on Absorbance at 280 nm), 1M NaCl / % of Total A1PI Eluted by Fraction (Based on Absorbance at 280 nm), 2% Acetic Acid / % of Total A1PI Eluted by Fraction (Based on Absorbance at 280 nm), Flowthrough: Trp position mutations, 1 mg A1PI
Summary of the method: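 Peptides synthesized on A-Totda-Toyopearl chelate resin (0.1 mmole/g) packed in 0.4×5 cm columns; 1 mg A1PI injected in equilibration buffer at 4 °C or 20 °C, 865 or 523 μl/min. Flowthrough, 1M/3M NaCl washes and 2% acetic acid eluate quantified by A280 or immunonephelometry as percent of total eluted.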

[4] = molecular target: T2, apolipoprotein alpha-1 (Apo A-1) (Homo sapiens, UniProt P02647); test: Purification from Effluent II+III, Apo A-1 mass balance; type: binding; conditions: 1 ml Eff. II+III, 4° C.
T2 construct: Eff; II+III is a process intermediate in the Cohn plasma fractionation process; tissue Bayer Corporation (Clayton, N.C.); host or cells: plasma fraction: Cohn Effluent II+III
T2 sequence (P02647 19-267): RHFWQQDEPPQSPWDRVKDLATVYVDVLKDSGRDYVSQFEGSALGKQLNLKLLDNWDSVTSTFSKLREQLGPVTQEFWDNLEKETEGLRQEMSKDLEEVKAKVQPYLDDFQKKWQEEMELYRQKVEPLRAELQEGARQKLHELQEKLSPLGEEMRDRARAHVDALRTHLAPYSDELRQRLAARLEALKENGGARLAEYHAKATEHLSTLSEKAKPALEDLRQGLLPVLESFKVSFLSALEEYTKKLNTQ
Description: as §1, §2

A1PI [5] = molecular target: T1, A1PI; test: A1PI yield from dialyzed (aqueous) Effluent II+III; type: binding; conditions: 4° C.; for Mass A1PI per Eluate Fraction, 1M NaCl / Mass A1PI per Eluate Fraction, 2% Acetic Acid / Mass A1PI per Eluate Fraction, Flowthrough: 1 ml dialyzed Eff. II+III (ethanol removed); for Percent Eluted by Fraction, 1M NaCl / Percent Eluted by Fraction, 2% Acetic Acid / Percent Eluted by Fraction, Flowthrough: A1PI, 1 ml dialyzed Eff. II+III
Description: Effluent II+III was dialyzed against equilibration buffer at 4° C. to remove the ethanol using a 15,000 molecular weight cut-off membrane. Nephelometry of the Eff. […] A portion of the identified sequences were assayed under the same conditions applied for neat Eff. II+III at 4° C. […] II+III compared to the neat, ethanol-containing feed. The binding strength differed for the aqueous feed as more AlPI eluted in 1M NaCl for the aqueous feed. The AlPI eluted in the 1M NaCl fractions was not as enriched as that eluted in the acid eluates.

[6] = * as in Tables 4, 5 (below detection limit)
[7] = 4° C., relative to total eluted
[8] = 20° C., * Below detection limit
[9] = 20° C., relative to total eluted
[10] = A1PI, * as in Tables 4, 5 (below detection limit)
[11] = 1 mg A1PI in equilibration buffer, 4° C.
[12] = 1 mg A1PI in equilibration buffer, 20° C.
[13] = Table 10, 4° C., * Below detection limit
[14] = Table 10, 4° C., relative to total loaded
[15] = Table 10, 20° C., * Below detection limit
[16] = Table 10, 20° C., relative to total loaded
[17] = Table 11, * Below detection limit

- Mass Protein per Eluate Fraction, 1M NaCl (A1PI [1]; 4° C., * Below detection limit): 0.33 mg
- Mass Protein per Eluate Fraction, 2% Ac. Acid (A1PI [1]; 4° C., * Below detection limit): 0.41 mg
- Mass Protein per Eluate Fraction, 3M NaCl (A1PI [1]; 4° C., * Below detection limit): 0.04 mg
- Percent Eluted by Fraction, 1M NaCl (A1PI [1]; [7]): 43%
- Percent Eluted by Fraction, 2% Ac. Acid (A1PI [1]; [7]): 53%
- Percent Eluted by Fraction, 3M NaCl (A1PI [1]; [7]): 5%
- Percent Eluted by Fraction, Flow (A1PI [1]; [7]): 0%
- Mass Protein per Eluate Fraction, 1M NaCl (A1PI [1]; [8]): 0.16 mg
- Mass Protein per Eluate Fraction, 2% Ac. Acid (A1PI [1]; [8]): 0.15 mg
- Mass Protein per Eluate Fraction, Flow (A1PI [1]; [8]): 0.67 mg
- Percent Eluted by Fraction, 1M NaCl (A1PI [1]; [9]): 16%
- Percent Eluted by Fraction, 2% Ac. Acid (A1PI [1]; [9]): 15%
- Percent Eluted by Fraction, 3M NaCl (A1PI [1]; [9]): 0%
- Percent Eluted by Fraction, Flow (A1PI [1]; [9]): 69%
- Percent Eluted by Fraction, 1M NaCl (A1PI [2]; A1PI): 7%
- Percent Eluted by Fraction, 2% Acetic Acid (A1PI [2]; A1PI): 75%
- Percent Eluted by Fraction, 3M NaCl (A1PI [2]; A1PI): 0%
- Percent Eluted by Fraction, Flow (A1PI [2]; A1PI): 18%
- Mass Protein per Eluate Fraction, 1M NaCl (A1PI [2]; [10]): 0.08 mg
- Mass Protein per Eluate Fraction, 2% Acetic Acid (A1PI [2]; [10]): 0.81 mg
- Mass Protein per Eluate Fraction, Flow (A1PI [2]; [10]): 0.20 mg
- Percent A1PI Eluted by Fraction Based on Absorbance at 280 nm, 1M NaCl (A1PI [3]; [11]): 55%
- Percent A1PI Eluted by Fraction Based on Absorbance at 280 nm, 2% Acetic Acid (A1PI [3]; [11]): 45%
- Percent A1PI Eluted by Fraction Based on Absorbance at 280 nm, Flowthrough (A1PI [3]; [11]): 0%
- Percent A1PI Eluted by Fraction, 1M NaCl (A1PI [3]; [12]): 84%
- Percent A1PI Eluted by Fraction, 2% Acetic Acid (A1PI [3]; [12]): 16%
- Percent A1PI Eluted by Fraction, Flowthrough (A1PI [3]; [12]): 0%
- Percent Eluted by Fraction, 1M NaCl [4]: 0%
- Percent Eluted by Fraction, 2% Acetic Acid [4]: 100%
- Percent Eluted by Fraction, 3M NaCl [4]: 0%
- Percent Eluted by Fraction, Flow [4]: 0%
- Mass Protein per Eluate Fraction, 2% Acetic Acid [4, 6]: 0.29 mg
- Mass A1PI per Eluate Fraction, 1M NaCl (A1PI [5]): 0.18 mg
- Mass A1PI per Eluate Fraction, 2% Acetic Acid (A1PI [5]): 0.20 mg
- Mass A1PI per Eluate Fraction, Flowthrough (A1PI [5]): 0.24 mg
- Percent Eluted by Fraction, 1M NaCl (A1PI [5]): 30%
- Percent Eluted by Fraction, 2% Acetic Acid (A1PI [5]): 32%
- Percent Eluted by Fraction, Flowthrough (A1PI [5]): 39%
Substance: ARWYIH
- Percent Eluted by Fraction, 1M NaCl (Immunoglobulin G (IgG)): 0%
- Percent Eluted by Fraction, 2% Acetic Acid (Immunoglobulin G (IgG)): 7%
- Percent Eluted by Fraction, 3M NaCl (Immunoglobulin G (IgG)): 0%
- Percent Eluted by Fraction, Flow (Immunoglobulin G (IgG)): 93%
- Mass Protein per Eluate Fraction, 2% Acetic Acid (Immunoglobulin G (IgG); [6]): 0.02 mg
- Mass Protein per Eluate Fraction, Flow (Immunoglobulin G (IgG); [6]): 0.23 mg
- Percent Eluted by Fraction, 1M NaCl (Immunoglobulin A (IgA)): 18%
- Percent Eluted by Fraction, 2% Acetic Acid (Immunoglobulin A (IgA)): 56%
- Percent Eluted by Fraction, 3M NaCl (Immunoglobulin A (IgA)): 0%
- Percent Eluted by Fraction, Flow (Immunoglobulin A (IgA)): 25%
- Mass Protein per Eluate Fraction, 1M NaCl (Immunoglobulin A (IgA); [6]): 0.07 mg
- Mass Protein per Eluate Fraction, 2% Acetic Acid (Immunoglobulin A (IgA); [6]): 0.21 mg
- Mass Protein per Eluate Fraction, Flow (Immunoglobulin A (IgA); [6]): 0.09 mg

- Mass Protein per Eluate Fraction, 1M NaCl (A1PI [1]; [13]): 0.12 mg
- Mass Protein per Eluate Fraction, 2% Acetic Acid (A1PI [1]; [13]): 0.75 mg
- Mass Protein per Eluate Fraction, Flow (A1PI [1]; [13]): 0.12 mg
- Percent Eluted by Fraction, 1M NaCl (A1PI [1]; [14]): 12%
- Percent Eluted by Fraction, 2% Acetic Acid (A1PI [1]; [14]): 76%
- Percent Eluted by Fraction, 3M NaCl (A1PI [1]; [14]): 0%
- Percent Eluted by Fraction, Flow (A1PI [1]; [14]): 12%
- Mass Protein per Eluate Fraction, 1M NaCl (A1PI [1]; [15]): 0.07 mg
- Mass Protein per Eluate Fraction, 2% Acetic Acid (A1PI [1]; [15]): 0.48 mg
- Mass Protein per Eluate Fraction, Flow (A1PI [1]; [15]): 0.13 mg
- Percent Eluted by Fraction, 1M NaCl (A1PI [1]; [16]): 11%
- Percent Eluted by Fraction, 2% Acetic Acid (A1PI [1]; [16]): 70%
- Percent Eluted by Fraction, 3M NaCl (A1PI [1]; [16]): 0%
- Percent Eluted by Fraction, Flow (A1PI [1]; [16]): 19%
- Mass A1PI per Eluate Fraction, 1M NaCl (A1PI [2]; [17]): 0.05 mg
- Mass A1PI per Eluate Fraction, 2% Acetic Acid (A1PI [2]; [17]): 0.57 mg
- Mass A1PI per Eluate Fraction, Flowthrough (A1PI [2]; [17]): 0.22 mg
- Percent Eluted by Fraction, 1M NaCl (A1PI [2]; Table 11, A1PI): 6%
- Percent Eluted by Fraction, 2% Acetic Acid (A1PI [2]; Table 11, A1PI): 68%
- Percent Eluted by Fraction, Flowthrough (A1PI [2]; Table 11, A1PI): 27%
- % of Total A1PI Eluted by Fraction (Based on Absorbance at 280 nm), 1M NaCl (A1PI [3]; 4° C.): 28%
- % of Total A1PI Eluted by Fraction (Based on Absorbance at 280 nm), 2% Acetic Acid (A1PI [3]; 4° C.): 72%
- % of Total A1PI Eluted by Fraction (Based on Absorbance at 280 nm), Flowthrough (A1PI [3]; 4° C.): 0%
- % of Total A1PI Eluted by Fraction (Based on Absorbance at 280 nm), 1M NaCl (A1PI [3]; 20° C.): 15%
- % of Total A1PI Eluted by Fraction (Based on Absorbance at 280 nm), 2% Acetic Acid (A1PI [3]; 20° C.): 85%
- % of Total A1PI Eluted by Fraction (Based on Absorbance at 280 nm), Flowthrough (A1PI [3]; 20° C.): 0%
- Mass A1PI per Eluate Fraction, 1M NaCl (A1PI [5]): 0.12 mg
- Mass A1PI per Eluate Fraction, 2% Acetic Acid (A1PI [5]): 0.16 mg
- Mass A1PI per Eluate Fraction, Flowthrough (A1PI [5]): 0.46 mg
- Percent Eluted by Fraction, 1M NaCl (A1PI [5]): 16%
- Percent Eluted by Fraction, 2% Acetic Acid (A1PI [5]): 22%
- Percent Eluted by Fraction, Flowthrough (A1PI [5]): 62%
Substance: VIYLVR: VIWLVR with Trp at position 3 replaced by Tyr
